{"source": "the supplement of paper PMC9112550", "about": "“Optimization of the antimicrobial peptide Bac7 by deep mutational scanning” (BMC Biology, 2022);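 also: peptides expressed intracellularly from a pBAD plasmid library in pooled LB shake-flask culture, induced with 0.3% L-arabinose, DNA abundance read by NGS, three biological replicates, DESeq2 with apeglm shrinkage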"}
{"tested_on": "Escherichia coli TOP10", "test": "shrunken log2 fold change of peptide-encoding DNA abundance (4.5 h post-induction vs induction); higher = less antimicrobial activity (less host growth inhibition)", "conditions": "time post-induction: 4.5 h; library: site-saturation at positions 5, 18, 19, 20"}
{"sequence": "RRIRTRPPRLPRPRPRPYPDPRP", "shrunken log2 fold change": -0.0217}
{"sequence": "RRIRPRPPRLPRPRPRPNRSPRP", "shrunken log2 fold change": 0.16}
{"sequence": "RRIRKRPPRLPRPRPRPFHTPRP", "shrunken log2 fold change": -0.0289}
{"sequence": "RRIRKRPPRLPRPRPRPVCCPRP", "shrunken log2 fold change": 0.517}
{"sequence": "RRIRMRPPRLPRPRPRPPQTPRP", "shrunken log2 fold change": 0.424}
{"sequence": "RRIRNRPPRLPRPRPRPDCPPRP", "shrunken log2 fold change": -0.031}
{"sequence": "RRIRNRPPRLPRPRPRPDLAPRP", "shrunken log2 fold change": 0.02}
{"sequence": "RRIRRRPPRLPRPRPRPKYQPRP", "shrunken log2 fold change": -0.017}
{"sequence": "RRIRPRPPRLPRPRPRPGRNPRP", "shrunken log2 fold change": -0.0548}
{"sequence": "RRIRRRPPRLPRPRPRPEDWPRP", "shrunken log2 fold change": 0.791}
{"sequence": "RRIRGRPPRLPRPRPRPLTMPRP", "shrunken log2 fold change": 0.763}
{"sequence": "RRIRCRPPRLPRPRPRPIGLPRP", "shrunken log2 fold change": 0.00863}
{"sequence": "RRIRFRPPRLPRPRPRPMCGPRP", "shrunken log2 fold change": -0.164}
{"sequence": "RRIRLRPPRLPRPRPRPQMGPRP", "shrunken log2 fold change": -0.0175}
{"sequence": "RRIRCRPPRLPRPRPRPCNMPRP", "shrunken log2 fold change": -0.502}
{"sequence": "RRIRERPPRLPRPRPRPTNAPRP", "shrunken log2 fold change": -0.0659}
{"sequence": "RRIRQRPPRLPRPRPRPLGKPRP", "shrunken log2 fold change": -0.0227}
{"sequence": "RRIRMRPPRLPRPRPRPNFTPRP", "shrunken log2 fold change": -0.099}
{"sequence": "RRIRVRPPRLPRPRPRPQCCPRP", "shrunken log2 fold change": -0.185}
{"sequence": "RRIRCRPPRLPRPRPRPDSVPRP", "shrunken log2 fold change": -0.894}
{"sequence": "RRIRGRPPRLPRPRPRPRSGPRP", "shrunken log2 fold change": 0.83}
{"sequence": "RRIRVRPPRLPRPRPRPLFQPRP", "shrunken log2 fold change": -0.0438}
{"sequence": "RRIRGRPPRLPRPRPRPCWMPRP", "shrunken log2 fold change": 0.301}
{"sequence": "RRIRIRPPRLPRPRPRPCQNPRP", "shrunken log2 fold change": -0.282}
{"sequence": "RRIRCRPPRLPRPRPRPKIFPRP", "shrunken log2 fold change": -0.0936}
{"sequence": "RRIRVRPPRLPRPRPRPMRVPRP", "shrunken log2 fold change": 0.0609}
{"sequence": "RRIRLRPPRLPRPRPRPEKCPRP", "shrunken log2 fold change": -0.0157}
{"sequence": "RRIRHRPPRLPRPRPRPYDIPRP", "shrunken log2 fold change": -0.387}
{"sequence": "RRIRVRPPRLPRPRPRPGATPRP", "shrunken log2 fold change": 0.277}
{"sequence": "RRIRFRPPRLPRPRPRPMDWPRP", "shrunken log2 fold change": 0.314}
{"sequence": "RRIRYRPPRLPRPRPRPIPCPRP", "shrunken log2 fold change": -0.156}
{"sequence": "RRIRNRPPRLPRPRPRPMILPRP", "shrunken log2 fold change": -0.0112}
{"sequence": "RRIRARPPRLPRPRPRPLCLPRP", "shrunken log2 fold change": 0.132}
{"sequence": "RRIRYRPPRLPRPRPRPLYGPRP", "shrunken log2 fold change": -0.82}
{"sequence": "RRIRPRPPRLPRPRPRPHKVPRP", "shrunken log2 fold change": -0.429}
{"sequence": "RRIRFRPPRLPRPRPRPRWCPRP", "shrunken log2 fold change": 0.14}
{"sequence": "RRIRARPPRLPRPRPRPYEWPRP", "shrunken log2 fold change": -0.0646}
{"sequence": "RRIRMRPPRLPRPRPRPQPVPRP", "shrunken log2 fold change": 0.622}
{"sequence": "RRIRGRPPRLPRPRPRPIQTPRP", "shrunken log2 fold change": 0.0411}
{"sequence": "RRIRNRPPRLPRPRPRPYWRPRP", "shrunken log2 fold change": -0.312}
{"sequence": "RRIRCRPPRLPRPRPRPGGRPRP", "shrunken log2 fold change": 0.404}
{"sequence": "RRIRRRPPRLPRPRPRPQGSPRP", "shrunken log2 fold change": 0.0234}
{"sequence": "RRIRKRPPRLPRPRPRPSSDPRP", "shrunken log2 fold change": 0.246}
{"sequence": "RRIRGRPPRLPRPRPRPGGDPRP", "shrunken log2 fold change": 0.937}
{"sequence": "RRIRFRPPRLPRPRPRPVGQPRP", "shrunken log2 fold change": -0.0211}
{"sequence": "RRIRSRPPRLPRPRPRPCNKPRP", "shrunken log2 fold change": -0.225}
{"sequence": "RRIRFRPPRLPRPRPRPIPKPRP", "shrunken log2 fold change": 0.179}
{"sequence": "RRIRERPPRLPRPRPRPMSVPRP", "shrunken log2 fold change": -0.158}
{"sequence": "RRIRTRPPRLPRPRPRPGVDPRP", "shrunken log2 fold change": 0.0151}
{"sequence": "RRIRARPPRLPRPRPRPVLQPRP", "shrunken log2 fold change": 1.09}
{"sequence": "RRIRARPPRLPRPRPRPRDDPRP", "shrunken log2 fold change": 0.647}
{"sequence": "RRIRCRPPRLPRPRPRPNPWPRP", "shrunken log2 fold change": 0.017}
{"sequence": "RRIRARPPRLPRPRPRPPGKPRP", "shrunken log2 fold change": 0.188}
{"sequence": "RRIRSRPPRLPRPRPRPEMTPRP", "shrunken log2 fold change": -0.0333}
{"sequence": "RRIRVRPPRLPRPRPRPQLYPRP", "shrunken log2 fold change": -0.137}
{"sequence": "RRIRHRPPRLPRPRPRPENAPRP", "shrunken log2 fold change": 0.14}
{"sequence": "RRIRYRPPRLPRPRPRPWVCPRP", "shrunken log2 fold change": -0.0275}
{"sequence": "RRIRGRPPRLPRPRPRPAGDPRP", "shrunken log2 fold change": 1.11}
{"sequence": "RRIRVRPPRLPRPRPRPGGAPRP", "shrunken log2 fold change": 0.603}
{"sequence": "RRIRLRPPRLPRPRPRPYTNPRP", "shrunken log2 fold change": -0.6}
{"sequence": "RRIRGRPPRLPRPRPRPQMYPRP", "shrunken log2 fold change": 0.0854}
{"sequence": "RRIRWRPPRLPRPRPRPHDVPRP", "shrunken log2 fold change": 0.132}
{"sequence": "RRIRARPPRLPRPRPRPMFIPRP", "shrunken log2 fold change": 0.0587}
{"sequence": "RRIRMRPPRLPRPRPRPLFMPRP", "shrunken log2 fold change": 0.0387}
{"sequence": "RRIRRRPPRLPRPRPRPMTLPRP", "shrunken log2 fold change": -0.142}
{"sequence": "RRIRVRPPRLPRPRPRPENRPRP", "shrunken log2 fold change": -0.221}
{"sequence": "RRIRARPPRLPRPRPRPFNAPRP", "shrunken log2 fold change": -0.307}
{"sequence": "RRIRERPPRLPRPRPRPNPTPRP", "shrunken log2 fold change": 0.00617}
{"sequence": "RRIRVRPPRLPRPRPRPWNWPRP", "shrunken log2 fold change": -0.00795}
{"sequence": "RRIRQRPPRLPRPRPRPGLVPRP", "shrunken log2 fold change": 0.18}
{"sequence": "RRIRLRPPRLPRPRPRPRVSPRP", "shrunken log2 fold change": -0.0787}
{"sequence": "RRIRNRPPRLPRPRPRPLVVPRP", "shrunken log2 fold change": -0.117}
{"sequence": "RRIRERPPRLPRPRPRPHRPPRP", "shrunken log2 fold change": -0.123}
{"sequence": "RRIRERPPRLPRPRPRPYTEPRP", "shrunken log2 fold change": 0.0251}
{"sequence": "RRIRKRPPRLPRPRPRPGPRPRP", "shrunken log2 fold change": 1.08}
